Measured values published in patent US7132278.

T1: AMARA peptide, synthetic substrate NH2-AMARAASAAALARRR-CO2H
T1 chain: AMARAASAAALARRR


Target: T1, AMARA peptide, synthetic substrate …

Row | Protein | Km (mM), pre-phosphorylated [mM]
1 | human PASK S1287,89A, pre-phosphorylated (protein) MEDGGLTAFEEDQRCLSQSLPLPVSAEGPAAQTTAEPSRSFSSAHRHLSRRNGLSRLCQSRTALSEDRWSSYCLSSLAAQNICTSKLHCPAAPEHTDPSEPRGSVSCCSLLRGLSSGWSSPLLPAPVCNPNKAIFTVDAKTTEILVANDKACGLLGYSSQDLIGQKLTQFFLRSDSDVVEALSEEHMEADGHAAVVFGTVVDIISRSGEKIPVSVWMKRMRQERRLCCVVVLEPVERVSTWVAFQSDGTVTSCDSLFAHLHGYVSGEDVAGQHITDLIPSVQLPPSGQHIPKNLKIQRSVGRARDGTTFPLSLKLKSQPSSEEATTGEAAPVSGYRASVWVFCTISGLITLLPDGTIHGINHSFALTLFGYGKTELLGKNITFLIPGFYSYMDLAYNSSLQLPDLASCLDVGNESGCGERTLDPWQGQDPAEGGQDPRINVVLAGGHVVPRDEIRKLMESQDIFTGTQTELIAGGQLLSCLSPQPAPGVDNVPEGSLPVHGEQALPKDQQITALGREEPVAIESPGQDLLGESRSEPVDVKPFASCEDSEAPVPAEDGGSDAGMCGLCQKAQLERMGVSGPSGSDLWAGAAVAKPQAKGQLAGGSLLMHCPCYGSEWGLWWRSQDLAPSPSGMAGLSFGTPTLDEPWLGVENDREELQTCLIKEQLSQLSLAGALDVPHAELVPTECQAVTAPVSSCDLGGRDLCGGCTGSSSACYALATDLPGGLEAVEAQEVDVNSFSWNLKELFFSDQTDQTSSNCSCATSELRETPSSLAVGSDPDVGSLQEQGSCVLDDRELLLLTGTCVDLGQGRRFRESCVGHDPTEPLEVCLVSSEHYAASDRESPGHVPSTLDAGPEDTCPSAEEPRLNVQVTSTPVIVMRGAAGLQREIQEGAYSGSCHHRDGLRLSIQFEVRRVELQGPTPLFCCWLVKDLLHSQRDSAARTRLFLASLPGSTHSTAAELTGPSLVEVLRARPWFEEPPKAVELEGLAACEGEYSQKYSTMSPLGSGAFGFVWTAVDKEKNKEVVVKFIKKEKVLEDCWIEDPKLGKVTLEIAILSRVEHANIIKVLDIFENQGFFQLVMEKHGSGLDLFAFIDRHPRLDEPLASYIFRQLVSAVGYLRLKDIIHRDIKDENIVIAEDFTIKLIDFGSAAYLERGKLFYTFCGTIEYCAPEVLMGNPYRGPELEMWSLGVTLYTLVFEENPFCELEETVEAAIHPPYLVSKELMSLVSGLLQPVPERRTTLEKLVTDPWVTQPVNLADYTWEEVCRVNKPESGVLSAASLEMGNRALADVAQAQELCGGPVPGEAPNGQGCLHPGDPRLLTS | 0.2
2 | human PASK S1273-1289A, pre-phosphorylated (protein) MEDGGLTAFEEDQRCLSQSLPLPVSAEGPAAQTTAEPSRSFSSAHRHLSRRNGLSRLCQSRTALSEDRWSSYCLSSLAAQNICTSKLHCPAAPEHTDPSEPRGSVSCCSLLRGLSSGWSSPLLPAPVCNPNKAIFTVDAKTTEILVANDKACGLLGYSSQDLIGQKLTQFFLRSDSDVVEALSEEHMEADGHAAVVFGTVVDIISRSGEKIPVSVWMKRMRQERRLCCVVVLEPVERVSTWVAFQSDGTVTSCDSLFAHLHGYVSGEDVAGQHITDLIPSVQLPPSGQHIPKNLKIQRSVGRARDGTTFPLSLKLKSQPSSEEATTGEAAPVSGYRASVWVFCTISGLITLLPDGTIHGINHSFALTLFGYGKTELLGKNITFLIPGFYSYMDLAYNSSLQLPDLASCLDVGNESGCGERTLDPWQGQDPAEGGQDPRINVVLAGGHVVPRDEIRKLMESQDIFTGTQTELIAGGQLLSCLSPQPAPGVDNVPEGSLPVHGEQALPKDQQITALGREEPVAIESPGQDLLGESRSEPVDVKPFASCEDSEAPVPAEDGGSDAGMCGLCQKAQLERMGVSGPSGSDLWAGAAVAKPQAKGQLAGGSLLMHCPCYGSEWGLWWRSQDLAPSPSGMAGLSFGTPTLDEPWLGVENDREELQTCLIKEQLSQLSLAGALDVPHAELVPTECQAVTAPVSSCDLGGRDLCGGCTGSSSACYALATDLPGGLEAVEAQEVDVNSFSWNLKELFFSDQTDQTSSNCSCATSELRETPSSLAVGSDPDVGSLQEQGSCVLDDRELLLLTGTCVDLGQGRRFRESCVGHDPTEPLEVCLVSSEHYAASDRESPGHVPSTLDAGPEDTCPSAEEPRLNVQVTSTPVIVMRGAAGLQREIQEGAYSGSCHHRDGLRLSIQFEVRRVELQGPTPLFCCWLVKDLLHSQRDSAARTRLFLASLPGSTHSTAAELTGPSLVEVLRARPWFEEPPKAVELEGLAACEGEYSQKYSTMSPLGSGAFGFVWTAVDKEKNKEVVVKFIKKEKVLEDCWIEDPKLGKVTLEIAILSRVEHANIIKVLDIFENQGFFQLVMEKHGSGLDLFAFIDRHPRLDEPLASYIFRQLVSAVGYLRLKDIIHRDIKDENIVIAEDFTIKLIDFGSAAYLERGKLFYTFCGTIEYCAPEVLMGNPYRGPELEMWSLGVTLYTLVFEENPFCELEETVEAAIHPPYLVSKELMSLVSGLLQPVPERRTTLEKLVTDPWVTQPVNLADYTWEEVCRVNKPEAGVLAAAALEMGNRALADVAQAQELCGGPVPGEAPNGQGCLHPGDPRLLTS | 0.2
3 | PASK ΔN, truncated variant of human PASK lacking both PAS domains (protein) SLPGSTHSTAAELTGPSLVEVLRARPWFEEPPKAVELEGLAACEGEYSQKYSTMSPLGSGAFGFVWTAVDKEKNKEVVVKFIKKEKVLEDCWIEDPKLGKVTLEIAILSRVEHANIIKVLDIFENQGFFQLVMEKHGSGLDLFAFIDRHPRLDEPLASYIFRQLVSAVGYLRLKDIIHRDIKDENIVIAEDFTIKLIDFGSAAYLERGKLFYTFCGTIEYCAPEVLMGNPYRGPELEMWSLGVTLYTLVFEENPFCELEETVEAAIHPPYLVSKELMSLVSGLLQPVPERRTTLEKLVTDPWVTQPVNLADYTWEEVCRVNKPESGVLSAASLEMGNRSLSDVAQAQELCGGPVPGEAPNGQGCLHPGDPRLLTS | 0.3
